Results on 41 sequences are retold here after the nanobody polyreactivity screen of Harvey et al. (2022).

This series can be described thus: yeast display, Sf9 membrane polyspecificity reagent, FACS + sequencing; frameworks hold sequencing errors. The essentials:
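Galactose induction of a Saccharomyces cerevisiae BJ5465 synthetic nanobody display library ran 36–48 hours. The cells were then stained for 1 hour at 4 °C with 10% biotinylated, detergent-solubilized Sf9 membrane reagent, pulled down on streptavidin microbeads and FACS-sorted into low and high (top ~1%) gates on expression and reagent-binding fluorescence. Labels for polyreactivity follow the gate of origin.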
For the sequence “QVQLVESGGGLDQAGGSLRLSCAASGRIFGYYAMGWYRQAPGKERELVAAISRSGGSTNYADSVKGRFTISRDTAKNTVYLQMNSLKPEDTAVYYCAVRYPYYSPFGGYDYWGQGTQVTVSS”, the “polyreactivity (PSR sort gate)” value was “high polyreactivity”. For “QVQLVESGGGLDQAGGSLRLSCAASGRIFIDNTMAWYRQAPGKERELVAAISWSGGSTYYADSVKGRFTISRDNAKNTVYLQMNSLKPEDTAVYYCAARSLRSNGRTWAVTYDYWGQGTQVTVSS”, the “polyreactivity (PSR sort gate)” value was “low polyreactivity”. The result for “QVQLVESGGGLDQAGGSLRLSCAASGRIFRCYAMGWYREAPGKERELVAAISWSSGNTYYADSVKGRFTISRDNAKNTVYLQMNSLKAEDTAVYYCAADFKPTSRSNKYYYWGQGTQVTVSS” reads “high polyreactivity”. With “QVQLVESGGGLDQAGGSLRLSCAASGRIFTVYGMGWYRQAPGKERELVAAISWSGGGTYYADSVKGRFTISRDNAKNTVYLQMNSLKPEDTAVYYCNADRQYTWSLVFFSSDYDYWGQGTQVTVSS”, the “polyreactivity (PSR sort gate)” value is recorded as “low polyreactivity”.

As to “QVQLVESGGGLDQAGGSLRLSCAASGRIFTYYTMGWYRQAPGKERELVATIRWSGGRTYYADSVKGRFTISRDNAKNTVYLQMNSLKPEDTAVYYCAANTYWRHYTPYTYGYWGQGTQVTVSS”, the “polyreactivity (PSR sort gate)” value is listed as “high polyreactivity”. The result for “QVQLVESGGGLDQAGGSLRLSCAASGRISVFYAMGWYRQAPGKERELVAAISRGSSTYYADSVKGLFTISRDNAKNTVYLQMNSLKPEETAVYYCNRARYYLYDGGYWGQGTQVTVSS” reads “high polyreactivity”; that for “QVQLVESGGGLDQAGGSLRLSCAASGRTFGVYAMGWYRQAPGKERELVAAITGRGGSTYYADSVKGRFTISRDNAKNTVYLQMNSLKPEDTAVYYCNAELYEYQSWDDYWGQGTQVTVSS”, “low polyreactivity”; that for “QVQLVESGGGLDQAGGSLRLSCAASGRTFKPYAMGWYRQAPGKERELVARISGSGGSTYYADSVKGRFSISRDNAKNTVYLQMNSLKPEDTAVYYCATTPYYWFDYWGQGTQVTVSS”, “low polyreactivity”. The result for “QVQLVESGGGLDQAGGSLRLSCAASGRTFPYNTMGWYRQAPGKERELVASITYTDGSTSYADSVKGRFTISRDNAKNTVYLQMNSLKPEDTSVYYCAADYYAHQDYRFDYWGQGTQVTVSS” reads “low polyreactivity”; that for “QVQLVESGGGLDQAGGSLRLSCAASGRTFTRYALCWYRQAPGNVRELVATMTRGARTYYADSVKGRFTISRDNAKNTVYLQMNSLKPVDTAVYYCNAVYSFLSPDQMGYWGQGTQVTVSS”, “high polyreactivity”; that for “QVQLVESGGGLDQAGGSLRLSCAASGRTFYSYAMGWYRQAPGKERELVAAITSGGRTKYADSVKGRFTISRDNAKNTVYLQMNSLKAEDTAVYYCAADRVSYYTTPYDYWGQGTQVTVSS”, “high polyreactivity”. As for “QVQLVESGGGLDQAGGSLRLSCAASGRTLSRYAMGWYRQAPGKERELVASMSWSGGRTYYADSVKGRFTISRDNAKNTVYLEMNSLKPEDTAVYYCAAVYVTAPFDYWGQGTQVTVSS”, the “polyreactivity (PSR sort gate)” value is given as “low polyreactivity”. The result for “QVQLVESGGGLDQAGGSLRLSCAASGSIFAGYAMGWYRQAHGKERELVAAINWTGDSTYYADSVKGRFTISRDNAKNTVYLQMNRLKPEDTAVYYCAAIRRQKGLWDYYYWGQGTQVTVSS” reads “low polyreactivity”; that for “QVQLVESGGGLDQAGGSLRLSCAASGSIFDYYTMGWYRQAPGKERELVASITQSGGSTYYADSVKGRFTISRDNAKNTVYLQMTSLKPEDTAVYYCAADGRYVRIRGDYWGQGTQVTVSS”, “low polyreactivity”. The result for “QVQLVESGGGLDQAGGSLRLSCAASGSIFFGNAMGWSRQPPGKERELVAAITTSGGSTYYADSVKGRFTISRDNAKNTLYLQMNSLKPEDTAVYYCYARIASWLGSRYEYWGQGTQVTVSS” reads “low polyreactivity”; that for “QVQLVESGGGLDQAGGSLRLSCAASGSIFGYAMGWYRQAPGKERELVAAIRWGGGSTYYADSVKGRFTISRDNAKKTVYLQMNSLKPEDTAVYYCAARYYRPGVLANYYWGQGTQVTVSS”, “high polyreactivity”; that for “QVQLVESGGGLDQAGGSLRLSCAASGSIFPFYAMGWYRQAPGKERELVAAISDRGGSTYYADSVKGRFTISRDNAKNSVYLQMNSLKPEATAVYYCAKGGEVSQGYTDEYDYWGQGTQVTVSS”, “low polyreactivity”. With “QVQLVESGGGLDQAGGSLRLSCAASGSIISGYAMGWYRQAPGKERELVAAISSSGGRTYYADSVKGRFTISRDNAKNTVYLQMNSLKPEDTAVYYCNARQFSRYDYNYWGQGTQETVSS” the entry was “high polyreactivity”. In the case of “QVQLVESGGGLDQAGGSLRLSCAASGSIYNRYAMGWYRQAPGKERELVADISSGGGTSYADSVKGRFTISRDNAKNTVYLQMNSLKPEDTAVYYCAAELYYWTYVRFDYWGQGTQVTVSS”, the “polyreactivity (PSR sort gate)” value is “high polyreactivity”. With “QVQLVESGGGLDQAGGSLRLSCAASGSIYYTAMGWYRQAPGKERELVASISTGDSTDYADSVKGRFTISRDNAKNTVYLQMNSLKPEDTAVYYCAADTRLGYWDDYWGQGTQVTVSS” the entry was “low polyreactivity”; with “QVQLVESGGGLDQAGGSLRLSCAASGSNFSGWYTMGWYRQAPGKERELVASISISTTDTYYADSVKGRFTISRDNAKKTVYVQMNSLKPEDTAVYYCAAYGWDHVIVEYDYWGQGTQVTVSS”, “low polyreactivity”. The result for “QVQLVESGGGLDQAGGSLRLSCAASGSTFDTYAMGGYRQAPGKERELVAAISVSGTSTSYADSVKGRFTISRDNAKNTVYLQMNILNPEDTAVYYCIATDFSRNPGYARPEYDYWGQGTQVTVSS” reads “low polyreactivity”.

Take “QVQLVESGGGLDQAGGSLRLSCAASGSTFGGNAMGWYRQAPGKERELVAAISGGDRTNYADSVKGRFTISRDNAKNSVYLQMNSLKPEDTAVYYCAADAGYWDLRSGIYKEDYWGQGTQVTVSS”: the “polyreactivity (PSR sort gate)” value is recorded as “low polyreactivity”. With “QVQLVESGGGLDQAGGSLRLSCAASGSTFRRYAMGWYRQAPGKERELVAAITGSGGRTYYADSVKGRFTISRDNAKNTVYLQMNSLKPEDTAVYYCNAVSYIDYSRARIRYEYWGQGTQVTVSS” the entry was “high polyreactivity”; with “QVQLVESGGGLDQAGGSLRLSCAASGSTFTSYDMGWYIQAPGKERELVAAITISSGGTYYADSVKGRFTISRDTAKNTVYLQMNSLKPEDTEVYYCAADIFADASYDYWGLGTQVTVSS”, “low polyreactivity”; with “QVQLVESGGGLDQAGGSLRLSCAASGSTFVGYAMGWYRQAPGKERELVAAISQSDVSTYYADSVKGRFTISRDNAKNTVYLQMNSLKPEDTAVYYCAADRGGLRWFWQVLYDYWGQGTQVTVSS”, “low polyreactivity”. The result for “QVQLVESGGGLDQAGGSLRLSCAASGSTSAYYVMGWYRQAPGKERELVAAIDFSGDSTYYADSVKGRFTISRDNAKNTVYLQMISLKPEDSAVYYCAAELFFYSSLVTYEYWGQGTQVTVSS” reads “high polyreactivity”. For the sequence “QVQLVESGGGLDQAGGSLRLSCAASGSTSLSYAMGWYRQAPGKERELVAAISRGGSTTYADSVKGRFTISRDNAKNPVYFQMKSLKPVDTAVYYCAVGYDIVRYSYSPFYRYDYWGQGTQVTVSS”, the “polyreactivity (PSR sort gate)” value is “low polyreactivity”. The result for “QVQLVESGGGLDQAGGSLRLSCAASGSTYPGNAMGWYRQAPGKERELVAAIDSSTGSTYYADSVKGRFTISRDHAKNTVYLQMNSLKPEDNAVYYCNKTSFLVKLDYWGLGTQVTVSS” reads “low polyreactivity”; that for “QVQLVESGGGLDQAGGSLRLSCAASGSTYSYYAMGWYRQAPGKERELVAAISRSGGSTYYADSVKGRFTISRDNAKNTVYLQMNCMKPEDTAVYYCAARGQYRYSFGDYSWGQGTQVTVSS”, “high polyreactivity”. For the sequence “QVQLVESGGGLDQAGGSLRLSCAASGYTLGDYAMGWYRQAPGKERELVAVITRNGGRTYYADSVKGRFTISRDNAKNTVFLQMNSLKPEDTAVYYCNRDTSIRDYNYWGQGTQVTVSS”, the “polyreactivity (PSR sort gate)” value is given as “high polyreactivity”. With “QVQLVESGGGLDQAGGSLRLSCAASGYTYLRNAMGWSRQAPGKERELVAAISYSGGGTYYADSVKGRFTISRDNAKNTVYLQMHSLKPEDTAVYYCAADRGGLRWFWQVLYDYWGQGTQVTVSS” the entry was “low polyreactivity”; with “QVQLVESGGGLDQAGGSLRLSCAAYGSTFTYQSMGWYRQATGKERELVAAITWSSDITYYADSVKGRFTISRDNAKSTVYLQMNSLKPEDTAVYYCAADGVTRDYVYWGQGTQVTVSS”, “low polyreactivity”.

On to “QVQLVESGGGLDQAGGSLRLSCAPSGFIFIRNAMGWYRQAPGKDRELVAAISSGGRTYYADSVKGRFTISRDNAKNTVYLQMNSLKPEDTAVDYCATRPHRPRGQSVGQYDDWGQGTQVTVSS”, for which the “polyreactivity (PSR sort gate)” value is “high polyreactivity”. The result for “QVQLVESGGGLDQAGGSLRLSCAPSGSIFGSYAMGWYRQAPGKERELVAAIRRSSASTYYADSVKGRFTISRDNAKNTVYLQMNSLKPEDTAVYYCATQSYSDYGYRYRYAAYDYWGQGTQVTVSS” reads “high polyreactivity”; that for “QVQLVESGGGLDQAGGSLRLSCAPSGSIVRYAMGWYRPAPGKERELVAAISSSGGSTYYADSVKGRFTISRDNAKNTFYLQMNRLKPADTAVYYCAKRIVQASVAAYYYWGQGPQVTVSS”, “high polyreactivity”. Regarding “QVQLVESGGGLDQAGGSLRLSCPASAITFQLYAKGWYRQAPGKERELVAAISRSGSGTYYADSVKGRFTISRDNAKNTVYLQMHSLKPEDTAVYYCAALGPGYYWGQGTQVTVSS”, the “polyreactivity (PSR sort gate)” value was “high polyreactivity”. The result for “QVQLVESGGGLDQAGGSLRLSSAASGFTFVYYAMGWYRQAPGKERELVAAISWSGGTTYYADSVKGRFTISRDNAKNTVYLQMNSLKPEDTAVYYCNVYPAYIYFDYDYWGQGTQVTVSS” reads “high polyreactivity”.

Turning to “QVQLVESGGGLDQAGGSLRLSSAASGSMILHNDMGWYRQAPGKEMELVATIDSAGGTYYADSVKGRFTISRDNAKNTVYLQMNSLKPEDSAVYYCAAYGPYVLSIYDYWGQGTQVTVSS”, the “polyreactivity (PSR sort gate)” value was “low polyreactivity”. With “QVQLVESGGGLDQAGGSLRLTCAASGNTSEYYAMGWSRQAPGKERQLVAAIRSDVRTYYADSVKGRFTISRDNAKNTVYLQMNSLKPEDTAVYYCNADKSAWDYYLQTFNYWGQGTQVTVSS” the entry was “high polyreactivity”.

Regarding “QVQLVESGGGLDQAGGSLRLTCAASGSIFRWYAMGWYRQAPGKERELVAAISRGASTNYADSVKGRFTISRDNAKNTVYLKMNSLKPEDTAVYFCAKRTTRLATYDYWGQGTQVTVSS”, the “polyreactivity (PSR sort gate)” value is on record as “high polyreactivity”.
